Test results as given in PMC10570035.
Where two headings read alike, the source gives them in different places.

Experiments:
[1] = molecular target: 40S ribosomal subunit (rabbit reticulocyte lysate) (rabbit (endogenous in rabbit reticulocyte lysate)) (UniProt G1TM55)
[2] = molecular target: 40S ribosomal subunit (rabbit reticulocyte lysate) (rabbit (endogenous in rabbit reticulocyte lysate)) (UniProt G1TM55); remark: listed apart in the source
[3] = molecular target: 40S ribosomal subunit (rabbit reticulocyte lysate) (rabbit (endogenous in rabbit reticulocyte lysate)) (UniProt G1TM55); remark: listed apart in the source
[4] = molecular target: 40S ribosomal subunit (rabbit reticulocyte lysate) (rabbit (endogenous in rabbit reticulocyte lysate)) (UniProt G1TM55); remark: listed apart in the source

Substance: MBP-eIF2A-His6 (from UniProt Q9BY44-1 1-585) (natural protein)
- in vitro translation of nLuc mRNA in 20% RRL, titration of recombinant protein (0-3.4 μM); IC50 of inhibition of translation [1]: 0.19 µM

Substance: MBP-eIF2A-His6-FLAG (from UniProt Q9BY44-1 1-585) (natural protein)
- in vitro translation of nLuc mRNA in 20% RRL, titration of recombinant protein (0-3.4 μM); IC50 of inhibition of translation [2]: 0.37 µM
- in vitro translation of CrPV IGR IRES nLuc mRNA in RRL, titration (0-3.4 μM); IC50 of inhibition of translation [3]: 0.63 µM
- in vitro translation of EMCV IRES nLuc mRNA in RRL, titration (0-3.4 μM); IC50 of inhibition of translation [3]: 0.69 µM
- in vitro translation of HCV IRES nLuc mRNA in RRL, titration (0-3.4 μM); IC50 of inhibition of translation [3]: 0.49 µM
- in vitro translation of PV IRES nLuc mRNA in RRL, titration (0-3.4 μM); IC50 of inhibition of translation [3]: 0.84 µM

Substance: tag-less eIF2A (from UniProt Q9BY44-1 1-585) (natural protein)
- in vitro translation of nLuc mRNA in 20% RRL, titration of recombinant protein (0-3.4 μM); IC50 of inhibition of translation [4]: 0.13 µM
